Laboratory results published in patent US6358738 (Harvard, dated 2002).

Assays:
[1] = target: T1, Plk 323-499 (two-hybrid bait, wild-type polo box) (murine (mammalian Plk), UniProt Q07832 323-499); assay: yeast two-hybrid
T1 construct: Bait fusion expressed in yeast

HA-Snk = HA-Snk (UniProt P53351 1-682); assay: interaction of recombinant proteins produced in insect cells with baculovirus (GST-fusion)
Source text: Full-length TCTP/p23 (SEQ ID No:27) cDNA was isolated and cloned into a pGEX vector to produce a GST-fusion protein.

[2] = target: T1, Plk 323-499 (two-hybrid bait, wild-type …); assay: yeast two-hybrid screen, mouse embryo cDNA library
Source text: Using the terminology of the two-hybrid system (Vojtek et al., 1993), vectors were engineered to have Plk carboxy terminal constructs as bait (see FIG. 11) and a mouse embryo 9.5/10.5-day cDNA library as prey. (A different strategy was used to identify TCTP/p23, i.e., full length Plk and a cDNA library from HeLa cells with inserts of 1–2 kb in the Examples, infra).

[3] = target: T2, GST-fusion protein of full-length TCTP/p23
T2 chain: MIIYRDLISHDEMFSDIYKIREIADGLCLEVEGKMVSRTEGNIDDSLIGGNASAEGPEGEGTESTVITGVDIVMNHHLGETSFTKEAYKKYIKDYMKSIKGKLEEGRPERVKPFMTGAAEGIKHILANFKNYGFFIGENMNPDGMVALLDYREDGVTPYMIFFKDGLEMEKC

Chain of HA-Snk (P53351 whole entry, the tested form may be a part): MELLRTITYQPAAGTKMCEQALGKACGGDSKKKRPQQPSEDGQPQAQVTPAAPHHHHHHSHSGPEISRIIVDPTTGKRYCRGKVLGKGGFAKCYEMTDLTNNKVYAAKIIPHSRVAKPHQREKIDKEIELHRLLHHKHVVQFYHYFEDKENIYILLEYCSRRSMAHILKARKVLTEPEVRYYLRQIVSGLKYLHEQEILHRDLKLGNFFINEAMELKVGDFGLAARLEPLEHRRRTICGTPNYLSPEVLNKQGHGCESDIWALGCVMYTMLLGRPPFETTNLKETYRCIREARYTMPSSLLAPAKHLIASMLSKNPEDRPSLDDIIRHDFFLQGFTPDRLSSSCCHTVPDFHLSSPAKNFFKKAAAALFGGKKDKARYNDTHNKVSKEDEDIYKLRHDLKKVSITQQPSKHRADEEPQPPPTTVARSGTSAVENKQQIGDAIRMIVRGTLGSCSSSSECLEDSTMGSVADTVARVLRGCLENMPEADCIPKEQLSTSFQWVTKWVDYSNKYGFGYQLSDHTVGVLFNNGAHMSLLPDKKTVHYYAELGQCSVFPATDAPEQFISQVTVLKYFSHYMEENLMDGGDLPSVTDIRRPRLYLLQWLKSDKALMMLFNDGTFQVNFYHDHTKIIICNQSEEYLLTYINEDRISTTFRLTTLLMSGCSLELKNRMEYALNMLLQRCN

B1: chaperonin-containing-TCP (CCT) epsilon subunit, amino acid residues 13-139, two-hybrid prey clone (other, not shown: large carriers)
chain: GRPFLIIKDQDRKSRLMGLEALKSHIMAAKAVANTMRTSLGPNGLDKMMVDKDGDVTITNDGATILSMMDVDHQIAKLMVELSKSQDDEIGDGTTGVVVLAGALLEEAEQLLDRGIHPIRIADGYEQ
notes: also called CCT-ε
**Q.** Does B1 bind [1]?
**A.** Result: binds

B2: GST-fusion protein of full-length TCTP/p23 (other)
chain: T2 chain
notes: Full-length TCTP/p23 cDNA cloned into a pGEX vector to produce a GST-fusion protein; also called GST-TCTP/p23; not shown: glutathione-S-transferase (GST) from pGEX vector
**Q.** Does B2 bind (HA-Snk)?
**A.** Result: no binding

B3: Plk 500-603 (two-hybrid prey clone) (other, not shown: large carriers)
chain: REGDELARLPYLRTWFRTRSAIILHLSNGTVQINFFQDHTKLILCPLMAAVTYINEKRDFQTYRLSLLEEYGCCKELASRLRYARTMVDKLLSSRSASNRLKAS
**Q.** Does B3 bind [2]?
**A.** Result: binds

B4: HA-Plk (protein)
chain: MNAAAKAGKLARAPADLGKGGVPGDAVPGAPVAAPLAKEIPEVLVDPRSRRQYVRGRFLGKGGFAKCFEISDADTKEVFAGKIVPKSLLLKPHQKEKMSMEISIHRSLAHQHVVGFHDFFEDSDFVFVVLELCRRRSLLELHKRRKALTEPEARYYLRQIVLGCQYLHRNQVIHRDLKLGNLFLNEDLEVKIGDFGLATKVEYEGERKKTLCGTPNYIAPEVLSKKGHSFEVDVWSIGCIMYTLLVGKPPFETSCLKETYLRIKKNEYSIPKHINPVAASLIQKMLQTDPTARPTIHELLNDEFFTSGYIPARLPITCLTIPPRFSIAPSSLDPSSRKPLKVLNKGVENPLPDRPREKEEPVVRETNEAIECHLSDLLQQLTSVNASKPSERGLVRQEEAEDPACIPIFWVSKWVDYSDKYGLGYQLCDNSVGVLFNDSTRLILYNDGDSLQYIERDGTESYLTVSSHPNSLMKKITLLNYFRNYMSEHLLKAGANITPREGDELARLPYLRTWFRTRSAIILHLSNGTVQINFFQDHTKLILCPLMAAVTYINEKRDFQTYRLSLLEEYGCCKELASRLRYARTMVDKLLSSRSASNRLKAS
**Q.** With B4 as the binder, how does the “phosphorylation of TCTP/p23 by Plk kinase activity” value [3] read?
**A.** Its value is “phosphorylated by Plk on serine residues at positions 46 and 64”.
